This data set can be described thus: label from the status in PepcDB records.
On to “PYYLFMTMYWHHTSTTPVSTVLITHGYAEHQGRYSALVRSLLNYNFDVVTFDLPGHGYAPGPRACVDVDKLVDFHVALRHRAEQDCRLRTETMCLFGHSMGGLITALSVLEDSSNVSAVALSGPAFSPFPKTPRVVTRMLRCSARIAPRLKVLALPQDAISRDPEVVAAYANDPRNYTGRVPLLTGASMALAGQKALAQASQWDRSVPLLVMHGSADRLADIEGSRNFAASAGGTMRPVDGAFHEIFNEPEAPQLRAELCEWLHANCG”, for which the protein production entry was “failed”.

Regarding “QEQRMSHHYATIEVSQQLRQLLGDQLVILLRETPDGQALERSQNDFRRVLEQGRANTVDSAEQAALDGVRDAYLQLQAHTPALLEAPMADNDGFSEAFNGLRLRLQDLQQLALAGISEAETSARHRA”, the protein production result was “not failed”. Take “QETGISMIGERTNSNGSKAFREAMLSGDWEKCVDIAKQQTRDGAHMLDLCVDYVGRDGTADMATLAALLATSSTLPIMIDSTEPEVIRTGLEHLGGRSIVNSVNFEDGDGPESRYQRIMKLVKQHGAAVVALTIDEEGQARTAEHKVRIAKRLIDDITGSYGLDIKDIVVDCLTFPISTGQEETRRDGIETIEAIRELKKLYPEIHTTLGLSNISFGLNPAARQVLNSVFLNECIEAGLDSAIAHSSKILPMNRIDDRQREVALDMVYDRRTEDYDPLQEFMQLFEGVSAAD”: the protein production entry is reported as “not failed”. As for “QGSVSTNLQEKGLVVSIVDTLMFDTGRAEVKPDFQKKLVEIGEILKTIDNYIRIEGHTDNTPISNSQYASNIELGSARSNNVEHLFIDVSKIPVTQMYTVSYADTRPVADNNSEAGKARNRRVDIVILNSK”, the entry is “failed”. As for “QIAAVDPAGMSVIRDRNQLFRVNSAGEVENTYTLKVINKTQQVQEYNLDVKGLNDVSWYGKQTIQVEPGEVLNLPMSLGADPDKLNSAITTIQFILTDKSNEFTIEVESRFIKKL”, the entry is “not failed”. Turning to “QIAELPYAMRINNSFEARKSPHAFVNLLNYILLEKSGADIACTALFDSANGFDEKITMRDIINNYPFPNTFKVIELSGKDIKLAIERSASYFDIVNHKITVNKEFLEPKPQHFNYDIFAGIQYTIHVSHPYGERVSDLLINDAPIQSDQIYTICVNNYRAVGGGNYDMYVNKPVIKDIQIEGAQLLIDYLSHNDLSQIPQVIDFNVVK”, the protein production entry is listed as “failed”. With “QKVQDAAMQEDPKALDEVVIVARQNINELDIRAKSGVVQRVDVERLNSKPMIDMSLALQGAVPGLIITNTGDLGSKPEIRIRGNSSFRKGDMANEPLYVMDGKVISSDAFMTLNPADIQEIKVLKDAVACALYGIKAANGVIEITSQRGNPDG”, the protein production result is listed as “failed”. As for “QPTGTMTTDSKLTSKESALALTNSAYLKNTVFNKMTPGWGCNTILLLEYMTGKATSENSQSNYKDFQDLLVSDRSLYIEDWWQDCYAGIANCNLALQKLGEFENLDASLVNGYMAEVKFMRALYYFYLVRIFGDVPKITTVQSELGELQVSRAPVKEIYDEIIIPDLLEAEQSDLAFSDHTGRVSMGAVKALLADVYLTYAGYPLQGGKSYYAESAKRSLEVIKSNEYTLFTDYESLRLPSQNNKGEFIYQVQFSLNKRHNESVRIFLPSRSGISAYDLEYGSLIPTKEFVESFEKGDKRTEEKQYFFTNYKGHPSKFSPGAAELEFMDLNGYYIYKFFDQVAVDNTAKSDLNWSVYRYTDVLLMYAEAQVNADGTPNQQSIDIVNQIRGRAGLAPFKQTNASAFLEEVWDQRYFDLCYENKMWFDMLRTRKIRDDKSGEYVDFIGYKTNWGKVYTETQLLFPIPLSERQANPNLTQNQGY”, the entry is “not failed”.

Turning to “QRSTFGTKHMVFRTDQLIDGIERNVRITSEEVNAALPVPLLDRQDPGAILISGSSYTEPSEALQTMREAMTQEKFSGSVEIPLGIVRALLDLGFTDEAASWLEDLVPRLGNEWRHQWYSGVTSLLLDDYLTAQQHFNEVYNILPGESAPKLARAAVCEMLLQEKGLESTALLDPAVTVAAADIKGEGMSNIWRELTSDPATLRFKAIYLYALVWRTNPTTVSSAFGLARQLAAENQIDLAVSTLDRVPQNSTHRRMAELTAILHLLGDLSEARLRRAARRLEAIPTNEPRFLQIQIAIMNAALQWLRTGGEAANDPIFEYPFTQRGLRNGLSATLRQLARSAPSSHRYALVDVANQVRPMTWF”, the protein production entry is “not failed”.

In the case of “QSLELGTMQPSFTSVTGKGGVKVIDGSSVKFGRFDGAEPHCVGLTDLVTEQDGSSMAAGFMQWDNAFFPWTLNYDEIDMVLEGELHVRHEGETMIAKAGDVMFIPKGSSIEFGTPTSVRFLYVAWPANWQSV”, the protein production entry is “not failed”. With “QSNVVIMQDPGGGYGDALRKVMYDPFEKETGIKVVTVQEARSGPRIKAQAEAGKAQWDLTFIFDQETKLLGDCCLADIDYSKLSESAHKTLAAMPDNLKRKKGVALQVIGVGLVYNKDKFKGDKAPQTWADFWDVKKFPGRRCMPAWPRFTFEAALMADGVTKDKLYPIDMDRALKKLKEIKPHVVKWWTTAAQPPQLILDGEADMCLAYTGSMSKLALEGAPIDLTFNQGFVYYDFFSIPKGAPNYDNALKLLSWRLDPKRAAQLTSTFPVALPSKVVFDAATDKNIARYWANNPENVAKAIEWSPDFWGAPSPAGNSTNEEYGQEKLNAMLAQ”, the protein production entry is reported as “not failed”. As for “QYCWQHRFPTGYFSICDRYMNGTCPEGNSCKFAHGNAELHEWEERRDALKMKLNKA”, the protein production entry is on record as “not failed”. Then “RAKALQKVKEAITLHGGQTILSTGITGDDARLAKAVCEAGVKLLEPNHPALALARGHKGVSNMHAAEQIRHEITNSQMAEAVHGVRNVVPDDIFITVGIAGGFTETLPVPLSEKEILEIARAGADGLHTHKSDWDDLQDIVNLAHQYGLTVDAYIGHPDDLHTFGIPARTPEEVASVAKRMQDIGVDMIGLMTGMSYEGVAAGDIPQMIKDRLRALVGAVDVPTLAEGGINLANAKAFKDTGVNILVVGTAI”, with “failed”; and “RDFLPALGSMRPPIIIHRAGKKYGFTLRAIRVYMGDSDVYTVHHMVWHVEDGGPASEAGLRQGDLITHVNGEPVHGLVHTEVVELILKSGNKVAISTTPLENTSIKVGPARKGSY”, with “failed”; and “RDRRDSRLRVAASMTIAEYLLPGWLVALRAQLPDTAVSLLAGNSAAVAERLLADDADLGFVEGVSVPTGLDSAVIGHDRLIVVTAPGHPWARRRRPLEAAELAATPLILREKGSGTRQVLDAALGGLARPLIELSSTTAVK”, with “failed”.

As to “REHNYPDTCFEHFVASSVAVYPVFELAAKSTGRIGQLLRSAVYESSAWQQGGNTHFGAFLLLIPLAMAAGEISREQGEQPGCGKTFFRIEAEEFENLASHAHAFVRETDCEDAVEFYRAFGHAGVRVNSVEEFDLEDPEATSDLRNQNITLYSLMEIAKGYDLIANEWTSGFGRCLEGAKIILDFMDARNCREEALAGGSVSICSGTGINEAVVYTFLKLLSKHRDTFIQTKFDAETADYVSSRAGEVLSGWEISGKKAGDFASILPRIQEFDSELLDKRINPGSTADIIIAALFIALLGGLR”, the protein production result is given as “failed”. As for “RFEHGTVLAECLSPASPDTSCELLKRAAKFLAYVHGSDDPASGRIGGVRKEVRNEVRMWLRAVLPDEPSDGANELFEEWWALLEGIGLPPQPRRDAHAFNWLVTDNDRIIAVDLEAARWRPMGYELAQLT”, the protein production entry is reported as “failed”. Then “RGIAVYVEHHNGNIHPVTYELIGKAREMASKIKQPVYCVFVGKDIKDKCSNLISYGVDEVFVYDEDEFKDFRIEPYSKAIENFIDKIKPTIVLVGGTTLGRSLAPRLAARFRTGLTADCTILDIQSNTDLDQIRPAFGGNIMAHINTPNNRPQFATVRYKIFSAPEKIENTTGKITLCKVEKKELKSKIKVLS”, with “not failed”; and “RGIIRLIKDNKSLTMKNTEVMLHGSSLAFDASTLEIYAALLNGACLSIIDKEDLIDSQTLKEKLKNDHVNRAFFTTPLFNSLCEQDPSVFNELEQVIIGGDRASNKHLKIVMKNSKKTQFYNGYGPTENTVFTTMHNIQYSELEGDIPIGKA”, with “failed”. Then “RHLVKVPCRIGASHTTGRLILPTLLANLSAVSDRFDFQVTLANSAEILTAMSQHKLDFGLVEKPLVTDQLNRLPFGHDELVHAGDFASPLWLLREPNSGVRHYTNAFLKARNIQPAQVMVIHSNQII”, with “failed”.

(Values after a protein production outcome set (Wang et al. 2014).)
